± gives the uncertainty stated by the source.
B1: Chromodomain-helicase-DNA-binding protein 7, residues 2564 to 2605; numbered along this chain, Q9P2D1 (parent)
chain: DPDTRIPVINLEDGTRLVGEDAPKNKDLVEWLKLHPTYTVDM

Variants of: B1
Assay: abundance fitness (aPCA) (normalised: wild type 0, dead -1); higher = more abundant; growth selection in yeast, the domain comes from the species named
Settings: Homo sapiens

For DPDTRIPVINLEDGTRLVGEDAPKNKDLVEWLHLHPTYTVDM [K33H], which abundance fitness is on record?
Its abundance fitness is -0.22 ± 0.46.

Which abundance fitness does the source give for DPDTRIPVINLEDGTRLVGEDAPKNKDLVEWLNLHPTYTVDM [K33N] here?
Its abundance fitness is -0.095 ± 0.078.

With DPDTRIPVINLEDGTRLVGEDAPKNKDLVEWLLLHPTYTVDM [K33L] as the variant, how does the abundance fitness read?
Its abundance fitness is -0.17 ± 0.064.

With DPDTRIPVINLEDGTRLVGEDAPKNKDLVEWLWLHPTYTVDM [K33W] as the variant, how does the abundance fitness read?
Its abundance fitness is -0.319 ± 0.079.

For DPDTRIPVINLEDGTRLVGEDAPKNKDLVEWLILHPTYTVDM [K33I], which abundance fitness is on record?
The abundance fitness was -0.449 ± 0.058.

With DPDTRIPVINLEDGTRLVGEDAPKNKDLVEWLVLHPTYTVDM [K33V] as the variant, how does the abundance fitness read?
Its abundance fitness is -0.261 ± 0.059.

With DPDTRIPVINLEDGTRLVGEDAPKNKDLVEWLTLHPTYTVDM [K33T] as the variant, how does the abundance fitness read?
The abundance fitness was -0.468 ± 0.088.

Which abundance fitness does the source give for DPDTRIPVINLEDGTRLVGEDAPKNKDLVEWLSLHPTYTVDM [K33S] here?
Its abundance fitness is -0.01 ± 0.055.

Which abundance fitness does the source give for DPDTRIPVINLEDGTRLVGEDAPKNKDLVEWLKLWPTYTVDM [H35W] here?
The abundance fitness was -0.764 ± 0.092.

With DPDTRIPVINLEDGTRLVGEDAPKNKDLVEWLKLGPTYTVDM [H35G] as the variant, how does the abundance fitness read?
The abundance fitness was -0.758 ± 0.053.

For DPDTRIPVINLEDGTRLVGEDAPKNKDLVEWLKLNPTYTVDM [H35N], which abundance fitness is on record?
Its abundance fitness is -0.064 ± 0.077.

With DPDTRIPVINLEDGTRLVGEDAPKNKDLVEWLKLCPTYTVDM [H35C] as the variant, how does the abundance fitness read?
Its abundance fitness is -0.866 ± 0.088.

Which abundance fitness does the source give for DPDTRIPVINLEDGTRLVGEDAPKNKDLVEWLKLLPTYTVDM [H35L] here?
The abundance fitness was -0.866 ± 0.08.

Which abundance fitness does the source give for DPDTRIPVINLEDGTRLVGEDAPKNKDLVEWLKLEPTYTVDM [H35E] here?
Its abundance fitness is -0.615 ± 0.093.

For DPDTRIPVINLEDGTRLVGEDAPKNKDLVEWLKLYPTYTVDM [H35Y], which abundance fitness is on record?
The abundance fitness was -0.593 ± 0.072.

For DPDTRIPVINLEDGTRLVGEDAPKNKDLVEWLKLDPTYTVDM [H35D], which abundance fitness is on record?
The abundance fitness was -0.547 ± 0.1.

Which abundance fitness does the source give for DPDTRIPVINLEDGTRLVGEDAPKNKDLVEWLKLMPTYTVDM [H35M] here?
The abundance fitness was -0.469 ± 0.088.

Which abundance fitness does the source give for DPDTRIPVINLEDGTRLVGEDAPKNKDLVEWLKLFPTYTVDM [H35F] here?
The abundance fitness was -0.744 ± 0.074.

Which abundance fitness does the source give for DPDTRIPVINLEDGTRLVGEDAPKNKDLVEWLKLKPTYTVDM [H35K] here?
Its abundance fitness is -0.546 ± 0.14.

For DPDTRIPVINLEDGTRLVGEDAPKNKDLVEWLKLTPTYTVDM [H35T], which abundance fitness is on record?
The abundance fitness was -0.616 ± 0.1.

For DPDTRIPVINLEDGTRLVGEDAPKNKDLVEWLKLQPTYTVDM [H35Q], which abundance fitness is on record?
Its abundance fitness is -0.56 ± 0.099.

For DPDTRIPVINLEDGTRLVGEDAPKNKDLVEWLKLVPTYTVDM [H35V], which abundance fitness is on record?
The abundance fitness was -0.751 ± 0.062.

Which abundance fitness does the source give for DPDTRIPVINLEDGTRLVGEDAPKNKDLVEWLKLHPFYTVDM [T37F] here?
Its abundance fitness is -0.727 ± 0.077.

For DPDTRIPVINLEDGTRLVGEDAPKNKDLVEWLKLHPPYTVDM [T37P], which abundance fitness is on record?
Its abundance fitness is -0.281 ± 0.1.

Which abundance fitness does the source give for DPDTRIPVINLEDGTRLVGEDAPKNKDLVEWLKLHPWYTVDM [T37W] here?
The abundance fitness was -0.231 ± 0.11.

Which abundance fitness does the source give for DPDTRIPVINLEDGTRLVGEDAPKNKDLVEWLKLHPMYTVDM [T37M] here?
Its abundance fitness is -0.082 ± 0.068.

For DPDTRIPVINLEDGTRLVGEDAPKNKDLVEWLKLHPDYTVDM [T37D], which abundance fitness is on record?
Its abundance fitness is -0.09 ± 0.06.

For DPDTRIPVINLEDGTRLVGEDAPKNKDLVEWLKLHPEYTVDM [T37E], which abundance fitness is on record?
The abundance fitness was -0.202 ± 0.089.

Which abundance fitness does the source give for DPDTRIPVINLEDGTRLVGEDAPKNKDLVEWLKLHPAYTVDM [T37A] here?
The abundance fitness was -0.131 ± 0.068.

Which abundance fitness does the source give for DPDTRIPVINLEDGTRLVGEDAPKNKDLVEWLKLHPGYTVDM [T37G] here?
The abundance fitness was 0.022 ± 0.054.

Which abundance fitness does the source give for DPDTRIPVINLEDGTRLVGEDAPKNKDLVEWLKLHPQYTVDM [T37Q] here?
The abundance fitness was -0.273 ± 0.14.

For DPDTRIPVINLEDGTRLVGEDAPKNKDLVEWLKLHPIYTVDM [T37I], which abundance fitness is on record?
Its abundance fitness is -0.221 ± 0.1.

Which abundance fitness does the source give for DPDTRIPVINLEDGTRLVGEDAPKNKDLVEWLKLHPHYTVDM [T37H] here?
The abundance fitness was -0.014 ± 0.077.

With DPDTRIPVINLEDGTRLVGEDAPKNKDLVEWLKLHPRYTVDM [T37R] as the variant, how does the abundance fitness read?
The abundance fitness was -0.05 ± 0.064.

For DPDTRIPVINLEDGTRLVGEDAPKNKDLVEWLKLHPSYTVDM [T37S], which abundance fitness is on record?
The abundance fitness was -0.058 ± 0.065.

For DPDTRIPVINLEDGTRLVGEDAPKNKDLVEWLKLHPLYTVDM [T37L], which abundance fitness is on record?
The abundance fitness was -0.159 ± 0.073.

Which abundance fitness does the source give for DPDTRIPVINLEDGTRLVGEDAPKNKDLVEWLKLHPNYTVDM [T37N] here?
Its abundance fitness is -0.059 ± 0.072.

Which abundance fitness does the source give for DPDTRIPVINLEDGTRLVGEDAPKNKDLVEWLKLHPTYTVAM [D41A] here?
Its abundance fitness is -0.396 ± 0.064.

For DPDTRIPVINLEDGTRLVGEDAPKNKDLVEWLKLHPTYTVCM [D41C], which abundance fitness is on record?
Its abundance fitness is -0.531 ± 0.067.

Which abundance fitness does the source give for DPDTRIPVINLEDGTRLVGEDAPKNKDLVEWLKLHNTYTVDM [P36N] here?
Its abundance fitness is -0.36 ± 0.066.

With DPDTRIPVINLEDGTRLVGEDAPKNKDLVEWLKLHATYTVDM [P36A] as the variant, how does the abundance fitness read?
Its abundance fitness is -0.561 ± 0.06.

For DPDTRIPVINLEDGTRLVGEDAPKNKDLVEWLKLHETYTVDM [P36E], which abundance fitness is on record?
Its abundance fitness is -0.406 ± 0.071.

Which abundance fitness does the source give for DPDTRIPVINLEDGTRLVGEDAPKNKDLVEWLKLHLTYTVDM [P36L] here?
The abundance fitness was -0.81 ± 0.096.

Which abundance fitness does the source give for DPDTRIPVINLEDGTRLVGEDAPKNKDLVEWLKLHSTYTVDM [P36S] here?
Its abundance fitness is -0.457 ± 0.066.

For DPDTRIPVINLEDGTRLVGEDAPKNKDLVEWLKLHHTYTVDM [P36H], which abundance fitness is on record?
Its abundance fitness is -0.492 ± 0.13.

With DPDTRIPVINLEDGTRLVGEDAPKNKDLVEWLKLHQTYTVDM [P36Q] as the variant, how does the abundance fitness read?
The abundance fitness was -0.461 ± 0.13.

With DPDTRIPVINLEDGTRLVGEDAPKNKDLVEWLKLHGTYTVDM [P36G] as the variant, how does the abundance fitness read?
Its abundance fitness is -0.484 ± 0.057.

With DPDTRIPVINLEDGTRLVGEDAPKNKDLVEWLKLHWTYTVDM [P36W] as the variant, how does the abundance fitness read?
The abundance fitness was -0.731 ± 0.1.

For DPDTRIPVINLEDGTRLVGEDAPKNKDLVEWLKLHITYTVDM [P36I], which abundance fitness is on record?
Its abundance fitness is -0.65 ± 0.078.

With DPDTRIPVINLEDGTRLVGEDAPKNKDLVEWLKLHCTYTVDM [P36C] as the variant, how does the abundance fitness read?
Its abundance fitness is -0.78 ± 0.067.

Which abundance fitness does the source give for DPDTRIPVINLEDGTRLVGEDAPKNKDLVEWLKLHKTYTVDM [P36K] here?
Its abundance fitness is -0.321 ± 0.39.

Which abundance fitness does the source give for DPDTRIPVINLEDGTRLVGEDAPKNKDLVEWLKLHDTYTVDM [P36D] here?
Its abundance fitness is -0.685 ± 0.17.

For DPDTRIPVINLEDGTRLVGEDAPKNKDLVEWLKLHRTYTVDM [P36R], which abundance fitness is on record?
The abundance fitness was -0.401 ± 0.07.

For DPDTRIPVINLEDGTRLVGEDAPKNKDLVEWLKLHPTYIVDM [T39I], which abundance fitness is on record?
The abundance fitness was -0.158 ± 0.064.

For DPDTRIPVINLEDGTRLVGEDAPKNKDLVEWLKLHPTYGVDM [T39G], which abundance fitness is on record?
Its abundance fitness is -0.295 ± 0.06.

Which abundance fitness does the source give for DPDTRIPVINLEDGTRLVGEDAPKNKDLVEWLKLHPTYQVDM [T39Q] here?
Its abundance fitness is 0.006 ± 0.065.

Which abundance fitness does the source give for DPDTRIPVINLEDGTRLVGEDAPKNKDLVEWLKLHPTYCVDM [T39C] here?
The abundance fitness was -0.212 ± 0.064.

With DPDTRIPVINLEDGTRLVGEDAPKNKDLVEWLKLHPTYAVDM [T39A] as the variant, how does the abundance fitness read?
Its abundance fitness is -0.279 ± 0.1.

For DPDTRIPVINLEDGTRLVGEDAPKNKDLVEWLKLHPTYKVDM [T39K], which abundance fitness is on record?
Its abundance fitness is 0.076 ± 0.063.

Which abundance fitness does the source give for DPDTRIPVINLEDGTRLVGEDAPKNKDLVEWLKLHPTYHVDM [T39H] here?
The abundance fitness was -0.186 ± 0.056.

— the Human Domainome abundance scans (Beltran et al. 2025)
